Assay [1] deals with N-terminal His-tagged version of serum resistance associated protein (SRA) (aa 1-251), wild type (Trypanosoma brucei rhodesiense). The assay can be described thus: pull-down of in vitro synthesized [35S]-apoL-I mutant with His-SRA on Ni-NTA beads, scintillation counting.
The target in assay [2] is I58Q/I62Q serum resistance associated protein (SRA), His-tagged (Trypanosoma brucei rhodesiense). The assay is described as follows: pull-down of in vitro synthesized [35S]-apoL-I with mutant His-SRA on Ni-NTA beads, scintillation counting.

With “[35S]-apoL-I truncated version ending at aa 355, with C-terminal V5 tag (from UniProt O14791 28-355)”, the binding (%) in assay [1] was determined as 24%. Consider “[35S]-apoL-I truncated version ending at aa 342, with C-terminal V5 tag (from UniProt O14791 28-342)”, for which, in assay [1], the binding (%) turned out to be 5%.

In assay [2], “in vitro synthesized [35S]-apoL-I, wild type, with C-terminal V5 tag (from UniProt O14791 16-398)” returned a binding (%) of 50%. In the case of “[35S]-apoL-I L345Y/L352A/Y354L point mutant, with C-terminal V5 tag (from UniProt O14791 16-398)”, the binding (%) in assay [1] stood at 67%.

These data come from patent US7585511.
